Source: patent publication US11535650 (RA PHARMACEUTICALS, dated 2022)
Each block holds one binder with its values, some of them ahead of it. Starred links: 1 amine or outer side, 2 acyl side, 3 side chain; linkers in the order of their positions; H or OH if unused. Positions of bridges follow the written chain, without caps; N, C: chain ends. Non-standard residues stand in square brackets, D forms with d. Primed or numbered codes have the meaning given here. No end group written: not given here. *: point of attachment. mXylyl(3) = bridging moiety between the two residues given in brackets; mXylyl = bridging moiety between residues (mXylyl(i,j)); Trp(7-aza) = N[C@@H](Cc1c[nH]c2ncccc12)C(=O)O; ivDde = CC(C)CC(=C1C(=O)CC(C)(C)CC1=O)*; pXylylene = c1cc(C[*:2])ccc1C[*:1]; NMeD = CN[C@@H](CC(=O)O)C(=O)O; Chg = N[C@H](C(=O)O)C1CCCCC1; Phg = N[C@H](C(=O)O)c1ccccc1; Tle = CC(C)(C)[C@H](N)C(=O)O; NMeS = CN[C@@H](CO)C(=O)O; Ac5c = NC1(C(=O)O)CCCC1; Nva = CCC[C@H](N)C(=O)O; Thp = NC1(C(=O)O)CCOCC1

Columns and labels:
[1] = target: T1, human C5 protein (human, UniProt P01031 19-673; P01031 678-1676); assay: cell-based or functional assay
[2] = target: T1, human C5 protein; assay: fluorescence polarization, 25 nM R3076 with increasing concentrations of C5, average of 10 to 60 minutes
Protocol: Polarization was measured over time, until binding reached equilibrium. K_D was determined using Graphpad Prism (using "Saturating Binding Curves, One Site—Specific Binding With Hill Slope" as the curve fit to determine K_D).

[3] = target: T1, human C5 protein; assay: cell-based or functional assay; remark: listed apart in the source
[4] = target: T1, human C5 protein; assay: competitive fluorescence polarization vs probe R3076, Exp 1
Protocol: (§1) Test articles listed in Table 7 were subsequently diluted in DMSO then assay buffer, comprising 10 2-fold dilutions and were then added to the assay plate in triplicate, rapidly. The assay plate was then incubated in the Paradigm (Molecular Devices, Sunnyvale, Calif.) plate reader for 60 minutes at 25° C.
(§2) After incubation for 60 minutes, the plate was read using the Paradigm FP protocol (Molecular Devices, Sunnyvale, Calif.) and raw polarization values were imported into Graphpad Prism.

[5] = target: T1, human C5 protein; assay: competitive fluorescence polarization vs probe R3076, Exp 2
Protocol: as §1, §2

[6] = target: T1, human C5 protein; assay: competitive fluorescence polarization vs probe R3076, average of two experiments
Protocol: as §1, §2

[7] = target: T1, human C5 protein; assay: cell-based or functional assay; remark: listed apart in the source

Kd [2]: 8.07 nM
B1: R3076 (peptide)
peptide: VVYENGYWEYPGVK
modifications: Ac-Nvl-Nvl-Y-E-N-Tbg-Y-azaTrp-E-Y-P-Chg-Nvl-K-(BODIPY-TMR-X) NH2
notes: R3072 with BODIPY-TMR dye on the C-terminal lysine; fluorescent probe of the FP assay; also called Probe R3076; labeled probe
Avg. IC50, human hemolysis assay (complete human sera) [1]: 297 nM

Binder: Ac-CVERFC[Ac5c][Tle]Y[Trp(7-aza)]EYP[Chg][Nva] (linker 1-6 via mXylyl(3)) [R3185]
Avg. IC50, hemolysis assay (C5 depleted sera + purified human C5) [3]: 12.5 nM

Binder: [(desamino)Cys][dA]ERFC[NMeD][Tle]Y[Trp(7-aza)]EYP[Chg]K(C16) (bridge 1-6) [R3199]
Avg. IC50, hemolysis assay (C5 depleted sera + purified human C5) [3]: 112 nM

Binder: Ac-CAERFCD[Tle]Y[Trp(7-aza)]EYP[Phg]K(C16) (linker 1-6 via mXylyl(3)) [R3189]
Avg. IC50, hemolysis assay (C5 depleted sera + purified human C5) [3]: 81.5 nM

Binder: Ac-KVERFD[NMeD][Tle]YWEYP[Chg]K(C16) (lactam 1-6) [R3195]
Avg. IC50, hemolysis assay (C5 depleted sera + purified human C5) [3]: 62.5 nM

Binder: Ac-KVERFD[NMeD][Tle]Y[Trp(7-aza)]EYP[Chg]K(C16)-NH2 (lactam 1-6) [R3194]
Avg. IC50, hemolysis assay (C5 depleted sera + purified human C5) [3]: 15.5 nM

IC50 [4]: > 1000 nM
Ki [4]: > 1000 nM
IC50 [5]: > 1000 nM
Ki [5]: > 1000 nM
IC50 [6]: > 1000 nM
Ki [6]: > 1000 nM
B2: R3023 (peptide)
peptide: Ac-YPYC[Phg][Trp(7-aza)][Tle]E[Nva]NY[Nva]E-NH2
SMILES: CCC[C@H](NC(=O)[C@H](Cc1ccc(O)cc1)NC(=O)[C@H](CC(N)=O)NC(=O)[C@H](CCC)NC(=O)[C@H](CCC(=O)O)NC(=O)[C@@H](NC(=O)[C@H](Cc1c[nH]c2ncccc12)NC(=O)[C@@H](NC(=O)[C@H](CS)NC(=O)[C@H](Cc1ccc(O)cc1)NC(=O)[C@@H]1CCCN1C(=O)[C@H](Cc1ccc(O)cc1)NC(C)=O)c1ccccc1)C(C)(C)C)C(=O)N[C@@H](CCC(=O)O)C(N)=O
notes: negative control in the FP assays; also called control polypeptide; scrambled polypeptide variant of R3002
Avg. IC50, human hemolysis assay (complete human sera) [1]: > 100000 nM

IC50 [4]: 295 nM
Ki [4]: 73.2 nM
IC50 [5]: 261 nM
Ki [5]: 86.9 nM
IC50 [6]: 278 nM
Ki [6]: 80 nM
Binder: Ac-[Nva]C[Phg]T[Trp(7-aza)]EY[NMeS]HC[Nva]P-NH2 (linker 2-10 via mXylyl) [R3011]
Avg. IC50, human hemolysis assay (complete human sera) [1]: 112 nM

Binder: Ac-KVERFD[NMeD][Tle]YWEYP[Chg]K(ivDde) (lactam 1-6) [R3197]
Avg. IC50, hemolysis assay (C5 depleted sera + purified human C5) [3]: 4 nM

Binder: Ac-CVERFC[Thp][Tle]Y[Trp(7-aza)]EYP[Chg][Nva] (linker 1-6 via mXylyl(3)) [R3186]
Avg. IC50, hemolysis assay (C5 depleted sera + purified human C5) [3]: 18 nM

B3: R3192 (peptide)
peptide: Ac-KVERFD[NMeD][Tle]Y[Trp(7-aza)]EYP[Chg]K-NH2
modifications: lactam 1-6
SMILES: CC(=O)N[C@H]1CCCCNC(=O)C[C@@H](C(=O)N(C)[C@@H](CC(=O)O)C(=O)N[C@H](C(=O)N[C@@H](Cc2ccc(O)cc2)C(=O)N[C@@H](Cc2c[nH]c3ncccc23)C(=O)N[C@@H](CCC(=O)O)C(=O)N[C@@H](Cc2ccc(O)cc2)C(=O)N2CCC[C@H]2C(=O)N[C@H](C(=O)N[C@@H](CCCCN)C(N)=O)C2CCCCC2)C(C)(C)C)NC(=O)[C@H](Cc2ccccc2)NC(=O)[C@H](CCCNC(=N)N)NC(=O)[C@H](CCC(=O)O)NC(=O)[C@H](C(C)C)NC1=O
Avg. IC50, hemolysis assay (C5 depleted sera + purified human C5) [3]: 1.5 nM

IC50 [4]: 4330 nM
Ki [4]: 866 nM
IC50 [5]: 4120 nM
Ki [5]: 882 nM
IC50 [6]: 4230 nM
Ki [6]: 874 nM
Binder: MCVERFCDVYWE-NH2 (linker 2-7 via mXylyl) [R3043]
Avg. IC50, human hemolysis assay (complete human sera) [1]: 934 nM

Binder: VERFCDGYWEYPGV ([cyclo-thioalkyl(1,5)]V-E-R-F-C-D-Tbg-Y-azaTrp-E-Y-P-Chg-Nvl) [R3184]
Avg. IC50, hemolysis assay (C5 depleted sera + purified human C5) [3]: 4 nM

Binder: VCYENGYWEYPGV (Ac-Nvl-C-Y-E-N-Tbg-Y-azaTrp-E-Y-P-Phg-Nvl-NH2) [R3002]
IC50, C5a EIA on supernatant of human RBC hemolysis assay [7]: 5.4 nM

IC50 [4]: 72.7 nM
Ki [4]: 10.4 nM
IC50 [5]: 64.1 nM
Ki [5]: 8.69 nM
IC50 [6]: 68.4 nM
Ki [6]: 9.54 nM
B4: R3003 (peptide)
peptide: Ac-[Nva]CYEN[Tle]Y[Trp(7-aza)]EYP[Phg]P-NH2
SMILES: CCC[C@H](NC(C)=O)C(=O)N[C@@H](CS)C(=O)N[C@@H](Cc1ccc(O)cc1)C(=O)N[C@@H](CCC(=O)O)C(=O)N[C@@H](CC(N)=O)C(=O)N[C@H](C(=O)N[C@@H](Cc1ccc(O)cc1)C(=O)N[C@@H](Cc1c[nH]c2ncccc12)C(=O)N[C@@H](CCC(=O)O)C(=O)N[C@@H](Cc1ccc(O)cc1)C(=O)N1CCC[C@H]1C(=O)N[C@H](C(=O)N1CCC[C@H]1C(N)=O)c1ccccc1)C(C)(C)C
Avg. IC50, human hemolysis assay (complete human sera) [1]: 13.9 nM

Binder: [(desamino)Cys]VERFC[NMeD][Tle]Y[Trp(7-aza)]EYP[Chg]K(C16) (bridge 1-6) [R3198]
Avg. IC50, hemolysis assay (C5 depleted sera + purified human C5) [3]: 142 nM

IC50 [4]: 6060 nM
Ki [4]: 1400 nM
IC50 [5]: 7580 nM
Ki [5]: 1580 nM
IC50 [6]: 6820 nM
Ki [6]: 1500 nM
Binder: Ac-C[Phg]T[Trp(7-aza)]EY[NMeS]HC[Nva]P[Nva]-NH2 (linker 1-9 via mXylyl) [R3014]
Avg. IC50, human hemolysis assay (complete human sera) [1]: 1420 nM

Binder: Ac-[Nva]C[Phg]T[Trp(7-aza)]EY[NMeS]HC[Nva]P[Nva]-NH2 (linker 2-10 via mXylyl) [R3008]
IC50, C5a EIA on supernatant of human RBC hemolysis assay [7]: 54.5 nM
IC50, membrane attack complex (MAC) EIA on supernatant of human RBC hemolysis assay [7]: 33 nM
Avg. IC50, human hemolysis assay (complete human sera) [1]: 97 nM

Binder: Ac-KVERFD[NMeD][Tle]YWEYP[Chg]K (lactam 1-6) [R3196]
Avg. IC50, hemolysis assay (C5 depleted sera + purified human C5) [3]: 3 nM

IC50 [4]: 267 nM
Ki [4]: 71.1 nM
IC50 [5]: 293 nM
Ki [5]: 57.6 nM
IC50 [6]: 280 nM
Ki [6]: 64.3 nM
Binder: Ac-[Nva]C[Phg]T[Trp(7-aza)]EY[NMeS]HC[Nva]-NH2 (linker 2-10 via pXylylene) [R3050]
Avg. IC50, human hemolysis assay (complete human sera) [1]: 42.9 nM
